Data reported in the RNAGym collection of RNA variant scans (doi:10.1073/pnas.2313332121).

B1: TPR t1 (parent)
chain: GACCAAUCUGCCCUCAGAGCUCGAGAACAUCUUCGGAUGCAGAGGAGGCAGGCUUCGGUGGCGCGAUAGCGCCAACGUCCUCAACCUCCAAUGCAUCCCACCACAUGAUGAUGCCUGAAGAGCCUUGGUUUUUUG

Variants of: B1
Experiment: polymerase ribozyme fitness, log enrichment relative to wild type (log ratio); higher = more active; in vitro selection for triplet polymerase activity
How it was run: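 In triplicate, a single round of in vitro selection was run on each mutant library, PCR-built and transcribed, covering one subunit of a heterodimeric triplet polymerase ribozyme. Frozen incubation at −7 °C followed annealing with a biotinylated primer, partner subunit and triplets, and extended constructs were then gel-excised, streptavidin-captured and taken through RT-PCR. Fitness is the logarithm of genotype enrichment over wild-type enrichment, from inverse-variance-weighted replicate averages of Illumina-sequenced inputs and outputs. […] only genotypes with ≥10 input reads and ≥1 read per output were kept.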

Variant | polymerase ribozyme fitness (log ratio)
A5G G44A G45U G63U C79U C124A | -1.7
A5G A46U C56U C73G G122A C123A | -3
C4U A68U A100U G117U | -5.92
C4A G110U | -3.24
A5C A74C | -1.06
C4A A5C C13U G128C | -1.73
C4U A43U C88U U92G | -2.04
A5C C11G G36U G44A C56A U112A | -1.22
C4A C8G G36U G45U G69C U78A C114U | -5.25
C4A C88U | -1.68
C4A C88A | -1.56
C4G G45A | -2.31
A5G G48U C73A C97A | -5.81
C4G U54A G60C | -1.88
A5C A74G C85A C104U | -0.8
C4U G48U G52U A90U C124G | -1.92
A5G U32C C40U C99U A100U | -5.33
C4A G51U C70A A84C G113U C114U G128A | -6.15
A5C C40U U67C C104G C123G G128A | -6.57
A5C C89G C114G U126C U131A | -5.03
C3U U92G G117U A119U | -5.83
C4U C72G C94G G113A G122U | -3.87
A5G C15G U32A G63U U112C A119U | -5.37
C4G U9G A41G U96C A111C U116A C123G | -1.71

Variant | polymerase ribozyme fitness (log ratio)
C4G C13A | -3.23
C4G C13G | -3.83
A5C C104U | -1.05
C4G G44C C62U | -2.44
A5G G120C | 0.0754
C4G G57C C89A C123A | -3.43
A5C G51C G77A C80G | -0.996
A5G U112C C124G G128A | -0.522
A5C U9C C28G C56U G120A | -1.71
C4U C8G U9C C11G C62G | -0.314
C4U C56U | -0.85
A5G C104A G113C | -4.37
A5G C11A C70G U81C | -4.45
C3U U21A A41G G48U C101G C124G | -1.96
C4U G42U U59A | -2.49
C4G U7G C8G G71A C98G A103C C114A G122U | -5.04
C4G G135U | -2.5
C4U U7C A43U C70U C85A U92G G120C | -5.06
A5G A18G G117U U125A | -2.93
C4U G36U C73U G127A | -2.05
C4U U14A C73U | -4.13
A5G C49A C53U C85A G135U | -3.84
C4G C13U U33G G39U G44A C82U U112A | -4.58
C4U U7G C11G C13A C56U U87A U112A | 1.5

Variant | polymerase ribozyme fitness (log ratio)
C4G U9C G57A G63C C79A A84C C89U | -4.8
C4G C8G C53A U112G G120A | -2.51
A5C C56A C80A | -3.29
A5G C72A | 0.0113
A5C C12G C114G | -5.39
C4G G51U G120U | -4.56
A5C C13U G60U | -0.844
C4A C13A G17A C22U A27G A46C G52C | -6.56
C4A C80A C101U A121G | -1.22
A5G A41G A50U C72U A75U G93A U112A G113C | -3.59
C4U A27G | -2.96
C4G C56A U59G C104U A111U C123U | -4.15
C3U U87A A103C | -5.54
C4U C13A A46C A50G C72U | -3.05
C4U G36U | -1.82
C4U C64A A68C C79A G120U | -6.51
A5C U78C C101U | -1.23
C4A A46C | -3.07
C4A A46U | -2.61
A5G C20U U38G G110U | -4.64
C4A A6C C11G C40U G110U | -4.57
A5C C82A U126G | -0.956
C4U U87A | -1.16
C4U C72A | -0.193

Variant | polymerase ribozyme fitness (log ratio)
C4A G36A | -2.02
A5C C82G U92G U130G | -4.87
A5C G63A C79U | -1.41
A5C C89A A111C | -3.6
C4A U9A A43U C56A A83C U126A | -4.76
A5G C13A A46U G63A U133A | -2.84
C4G C13U C53U A68G C115G A121U | -1.92
C4U A18C A29G C56A | -4.17
C4G C70G | -3.78
C4G C11G G39A | -1.72
C4U C11A A50C C85U U112C | -1.65
A5C A18C | -2.78
A5C C11U A43U U59C G60A | -4.12
C4A G93A G120C U126G | -1.92
C4G C15U | -2.66
C4U A18U U55G C86U | -2.79
A5C A27G G63C A121G | 0.00315
A5G A29U G48C U112G | -4.65
A5C A43G C53U G63C G113C | -3.6
A5G C64U | 0.17
A5C C56G C80U | -1.77
C4G G113U | -3.96
C4A A46U C88U U92A U116C | -6.04
A5G G36U G61A A111C A119C | -2.68

Variant | polymerase ribozyme fitness (log ratio)
A5G C8G | -0.847
A5G A26U | -2.44
C4G A16C C82U G120C C124A | -3.01
C4U C49U C56G C114A G127A | -3.57
C4U G63U | -1.66
C4U A16C C64U | -4.16
C3U U92C | -1.23
C4U C8G G47C C123A | -0.0311
A5G C88A A91C C114G A121C | -0.389
C4U A27U C72U | -2.49
C4G U106C C115G | -4.76
A5G C124A | 1.03
A5C C11A A50G C53A C99A C102G C104A C115U | -7.15
C4G U32A G71U A121C U129A | -4.53
C3U U112C | 1.51
A5G C13A C20U U129C | -4.45
C4A U7A G110U | -2.4
C3U U38A G69U U109A | -2.41
A5G G135U | -1.22
C4G A46U C53A C72A C86A | -2.23
A5G C62A G117C | -4.86
C4A G48U G120U | -3.84
A5C C70G | -2.95
A5G U9G A111U U126A | -3.21

Variant | polymerase ribozyme fitness (log ratio)
A5C C88G G127A | -2.6
A5C C56G | -1.73
A5G U14A C73U | -2.23
C4A A29G C88A | -3.39
C4U C8G C13A U21G G77U C82A A84U A121C | -0.469
A5C A26G C88U U116C U129A | -6.24
A5C C12G C49A C56A A83C | -1.46
C4A C13U C15G A37C G113A A121C | -6.02
A5C A26U C62U | -4.3
C4G C12A C40A C72U G77U | -3.43
C3U U78C A105C C124U | -1.78
A5C U7C A29G G71A C89U G93C | -4.81
C4U U7A C11A | -0.665
A5G C56A A74G C97U C123A | 0.643
A5G C40U G45U A50C U125A | -4.22
A5C G71A U132A | -1.18
C4A C56G C102U | -4
A5G C15U C49U C62A C123A | -2.06
C4G C34A C72G | -5.9
A5G G117C | -3.71
A5C C12A | -0.824
C4G A5G C53A C89A G113U C114U G122U U129G | -4.07
A5G A111G G122U | -2.04
A5C C53G U96A C123U | -0.893

Variant | polymerase ribozyme fitness (log ratio)
C4U A16U G42U U59G A84U | -4.24
A5G C64U C85U | -1.64
C4U U92A | -4.01
A5C U87G C101U | -0.776
A5G G51U A83U A121C | -3.06
C4U C70G | -2.23
A5G C82U C97U C124G U126A | -0.153
C4U C49U C73G A121C | 0.746
C4U G69A C89U C123G | -3.15
A5G A91C | -1.57
C4G U87G | -1.54
C4U C76G C114U U129A | -4.95
A5G C13A G48C C73A U112A G120C | -0.914
C4U G60U C114U | -3.78
C4G C72U | -1.37
C4G A111G | -1.57
C4A G63A | -1.65
A5G C12U G35A G71A U78A C85G C124A | -5.49
A5C G52U | -2.8
A5C G52A | -0.884
C4U G44U C76A G77U A91C G120A | -2.7
A5C C8G U33G C97U | -5.64
A5G G48C G63A G117C | -6.49
